# Measured values: IntAct's records for PubMed 16951355
# B1: ICOS ligand (Homo sapiens), O75144 (parent)
# chain: MRLGSPGLLFLLFSSLRADTQEKEVRAMVGSDVELSCACPEGSRFDLNDVYVYWQTSESKTVVTYHIPQNSSLENVDSRYRNRALMSPAGMLRGDFSLRLFNVTPQDEQKFHCLVLSQSLGFQEVLSVEVTLHVAANFSVPVVSAPHSPSQDELTFTCTSINGYPRPNVYWINKTDNSLLDQALQNDTVFLNMRGLYDVVSVLRIARTPSVNIGCCIENVLLQQNLTVGSQTGNDIGERDKITENPVSTGEKNAATWSILAVLCLLVVVAVAIGWVCRDRCLQHSYAGAWAVSPETELTGHV
# Variants of: B1
# Settings: with icos_human ICOS
row,Variant,effect of a mutation on the interaction
1,L47A,with no effect
2,N70Q,with no effect
3,T64A,with no effect
4,G195A,with no effect
5,G121A,with no effect
6,Y51F,decreasing interaction strength
7,Y51A,disrupting interaction strength
8,S87A,with no effect
9,L120A,decreasing interaction strength
10,F138A,with no effect
11,E124A,decreasing interaction strength
12,D77A,with no effect
13,H66A,decreasing interaction strength
14,F122A,disrupting interaction strength
15,Q55A;V62A,disrupting interaction strength
16,Q123A,with no effect
17,N186Q,with no effect

row,Variant,effect of a mutation on the interaction
1,S59A,with no effect
2,N225Q,with no effect
3,V143A,with no effect
4,L114A,decreasing interaction strength
5,Q55A,decreasing interaction strength
6,T61A,with no effect
7,Y53F,disrupting interaction strength
8,Y53A,disrupting interaction strength
9,P141A,with no effect
10,N137Q,with no effect
11,V62A,decreasing interaction strength
12,V76A,decreasing interaction strength
13,L98A,with no effect
14,Y80A,disrupting interaction strength
15,N102Q,decreasing interaction strength
16,L196A,with no effect
